In PMC12285722, “M6A-dependent RNA condensation underlies FUS autoregulation and can be harnessed for ALS therapy development”:

Target: FUS (recombinant, His-tagged) (human, UniProt P35637 1-526)
Assay: EMSA; 250 nM RNA, 0-7.5 uM FUS (Methods: 7.0); EMSA: 50 mM Tris-HCl pH 7.5, 100 mM KCl, 2 mM MgCl2, 100 mM beta-mercaptoethanol, 0.1 mg/ml BSA, 30 min RT, 6% native gel in TBE; CONA: lysate in 1% Triton X-100/PBS, beads washed in 20 mM Hepes pH 7.5, 0.3 M NaCl, 0.01% Triton X-100, 5 mM MgCl2, 2 h RT
Settings: protein: recombinant; tags: His; label: 5' Cy5; 3' biotin-TEG

Sequence of FUS (recombinant, His-tagged) (P35637 whole entry): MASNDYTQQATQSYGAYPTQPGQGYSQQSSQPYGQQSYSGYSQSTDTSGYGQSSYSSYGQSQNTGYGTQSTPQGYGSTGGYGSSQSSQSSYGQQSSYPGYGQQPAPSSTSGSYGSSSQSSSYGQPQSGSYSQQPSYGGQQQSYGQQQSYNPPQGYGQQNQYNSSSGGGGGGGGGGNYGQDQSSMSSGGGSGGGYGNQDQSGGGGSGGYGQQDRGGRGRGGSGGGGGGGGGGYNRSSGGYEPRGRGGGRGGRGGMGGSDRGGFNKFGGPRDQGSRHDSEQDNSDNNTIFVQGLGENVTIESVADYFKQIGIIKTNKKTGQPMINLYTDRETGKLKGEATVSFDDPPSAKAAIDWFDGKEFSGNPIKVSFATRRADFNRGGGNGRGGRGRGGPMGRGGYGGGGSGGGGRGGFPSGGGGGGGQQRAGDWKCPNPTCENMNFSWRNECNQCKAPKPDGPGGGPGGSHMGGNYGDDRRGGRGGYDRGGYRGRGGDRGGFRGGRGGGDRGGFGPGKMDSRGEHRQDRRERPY

B1: 4xDRACH (ssRNA)
RNA: GGACUCGGACUUGGACUCUGGACUUUG
B1: binds.
